Measured values: PMC11306251, “An integrative structural study of the human full-length RAD52 at 2.2 Å resolution” (Communications Biology, 2024)

Assays:
FL-RAD52 = target: T1, FL-RAD52 (Homo sapiens, UniProt P43351 1-418); experiment: fluorescence polarization; apparent Kd; 10 nM DNA; FP: 25 mM Tris-HCl pH 7.5, 62.5 mM NaCl, 5% glycerol, 1 mM DTT, room temperature, 15 min; conditions: protein: recombinant; tags: His-tag (pET15b); label: 5'-6-FAM; single strand
T1 sequence: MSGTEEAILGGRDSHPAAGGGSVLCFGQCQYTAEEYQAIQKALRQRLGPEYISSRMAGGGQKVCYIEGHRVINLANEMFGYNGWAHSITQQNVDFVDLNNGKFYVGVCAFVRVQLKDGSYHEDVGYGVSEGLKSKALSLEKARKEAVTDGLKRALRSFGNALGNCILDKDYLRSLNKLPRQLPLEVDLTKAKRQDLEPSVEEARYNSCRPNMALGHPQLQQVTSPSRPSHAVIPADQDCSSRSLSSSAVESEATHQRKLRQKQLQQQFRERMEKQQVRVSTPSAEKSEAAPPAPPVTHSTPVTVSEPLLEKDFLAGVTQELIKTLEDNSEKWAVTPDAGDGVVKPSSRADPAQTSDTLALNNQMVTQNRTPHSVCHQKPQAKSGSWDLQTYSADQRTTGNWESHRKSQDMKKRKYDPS

[1] = target: the molecule itself; experiment: MST; apparent; RED-NHS labelled FL-RAD52 constant at 10 nM, unlabelled FL-RAD52 0.7 nM-25 μM; 25 °C; 25 mM Hepes pH 7.5, 5% glycerol, 250 mM NaCl, 0.05% Tween 20; step of self-association not stated

B1: dT30 ssDNA (ssDNA)
DNA: TTTTTTTTTTTTTTTTTTTTTTTTTTTTTT
- Kd (FL-RAD52): 0.0372 ± 0.0004 µM

B2: Human full-length RAD52 (FL-RAD52), 6xHis-tagged (natural protein, UniProt P43351 1-418, looked up)
chain: MSGTEEAILGGRDSHPAAGGGSVLCFGQCQYTAEEYQAIQKALRQRLGPEYISSRMAGGGQKVCYIEGHRVINLANEMFGYNGWAHSITQQNVDFVDLNNGKFYVGVCAFVRVQLKDGSYHEDVGYGVSEGLKSKALSLEKARKEAVTDGLKRALRSFGNALGNCILDKDYLRSLNKLPRQLPLEVDLTKAKRQDLEPSVEEARYNSCRPNMALGHPQLQQVTSPSRPSHAVIPADQDCSSRSLSSSAVESEATHQRKLRQKQLQQQFRERMEKQQVRVSTPSAEKSEAAPPAPPVTHSTPVTVSEPLLEKDFLAGVTQELIKTLEDNSEKWAVTPDAGDGVVKPSSRADPAQTSDTLALNNQMVTQNRTPHSVCHQKPQAKSGSWDLQTYSADQRTTGNWESHRKSQDMKKRKYDPS
notes: Human RAD52, full length, 418 amino acids (47 kDa); expression vector pET15b (Addgene, number not given); In the MST experiment the copy held at constant concentration was labelled with RED-NHS (amine dye NT-647-NHS); No tag cleavage is described; the SAXS deposit is named 'His-Tagged full-length'; also called DNA repair protein RAD52 homolog; source: E. coli BL21 (DE3) Rosetta pLysS, purified …
- Kd [1]: 13 µM
